Molecular target: T1, FLAG-hSIRT1-FL (full length human SIRT1, FLAG-tagged) (human, UniProt Q96EB6 1-747)
T1 sequence (looked up): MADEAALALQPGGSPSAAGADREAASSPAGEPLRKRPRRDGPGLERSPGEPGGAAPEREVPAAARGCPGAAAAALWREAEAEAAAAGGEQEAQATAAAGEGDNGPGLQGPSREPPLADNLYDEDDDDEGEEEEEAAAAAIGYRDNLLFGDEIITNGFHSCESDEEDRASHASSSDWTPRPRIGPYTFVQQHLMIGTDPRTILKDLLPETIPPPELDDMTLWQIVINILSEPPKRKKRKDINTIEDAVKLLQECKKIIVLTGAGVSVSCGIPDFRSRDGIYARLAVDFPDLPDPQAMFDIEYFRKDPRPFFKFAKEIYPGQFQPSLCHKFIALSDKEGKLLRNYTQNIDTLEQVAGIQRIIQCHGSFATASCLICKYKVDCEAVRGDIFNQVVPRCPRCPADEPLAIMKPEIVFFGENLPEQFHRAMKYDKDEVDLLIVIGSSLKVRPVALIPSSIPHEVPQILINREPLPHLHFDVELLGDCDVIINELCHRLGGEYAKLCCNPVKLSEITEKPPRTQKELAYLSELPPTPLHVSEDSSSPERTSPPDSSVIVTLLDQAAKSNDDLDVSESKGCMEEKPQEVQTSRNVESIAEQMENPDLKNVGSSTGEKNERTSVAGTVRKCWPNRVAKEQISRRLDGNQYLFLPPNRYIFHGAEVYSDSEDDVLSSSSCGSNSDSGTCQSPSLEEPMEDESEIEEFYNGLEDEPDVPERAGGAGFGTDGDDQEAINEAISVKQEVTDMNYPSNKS
Assay: pull-down

binding result: binds
B1: GST-TDG(67–308) (domain or fragment, human, UniProt Q13569 67-308, looked up)
chain: TTEPKQPVEPKKPVESKKSGKSAKSKEKQEKITDTFKVKRKVDRFNGVSEAELLTKTLPDILTFNLDIVIIGINPGLMAAYKGHHYPGPGNHFWKCLFMSGLSEVQLNHMDDHTLPGKYGIGFTNMVERTTPGSKDLSSKEFREGGRILVQKLQKYQPRIAVFNGKCIYEIFSKEVFGVKVKNLEFGLQPHKIPDTETLCYVMPSSSARCAQFPRAQDKVHYYIKLKDLRDQLKGIERNMDV

From PMC4465237 (The Biochemical journal, 2013)
